Tested on: Abp1 PPIs
Experiment: DHFR-PCA of Abp1 SH3-swapped baits (Fig. 2B-D, S2C, S2F);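 as to Protein-protein interaction distance between Abp1 SH3-swapped baits, to ABP1: Euclidean distance between DHFR-PCA score profiles of the baits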;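 as to Protein-protein interaction distance between Abp1 SH3-swapped baits, to BEM1-2: Euclidean distance between DHFR-PCA score profiles of the baits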;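 as to Protein-protein interaction distance between Abp1 SH3-swapped baits, to BOI1: Euclidean distance between DHFR-PCA score profiles of the baits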;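 as to Protein-protein interaction distance between Abp1 SH3-swapped baits, to BZZ1-1: Euclidean distance between DHFR-PCA score profiles of the baits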
Assay type: cell-based, Saccharomyces cerevisiae
Method in brief: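 Interactions were scored by DHFR protein-fragment complementation. DHFR F[1,2]-tagged Abp1 strains, whose SH3 was swapped for yeast or human ortholog domains, were crossed on YPD at 30 °C for 48 h with a 1536-format array of 575 prey-DHFR F[3] strains and 40 negatives, giving four replicates per pair. PCA selection lasted 4 days after double diploid selection.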

[1] = number of PPIs, difference, Abp1 SH3-swapped with the listed SH3, Fig2D,S2F

B1: BOI1 (protein, UniProt P38041 1-980, looked up)
BEM1-interacting protein 1: MSLEGNTLGKGAKSFPLYIAVNQYSKRMEDELNMKPGDKIKVITDDGEYNDGWYYGRNLRTKEEGLYPAVFTKRIAIEKPENLHKSPTQESGNSGVKYGNLNDSASNIGKVSSHQQENRYTSLKSTMSDIDKALEELRSGSVEQEVSKSPTRVPEVSTPQLQDEQTLIQEKTRNEENTTHDSLFSSTADLNLSSESLKNISKSNISTKSLEPSSESVRQLDLKMAKSWSPEEVTDYFSLVGFDQSTCNKFKEHQVSGKILLELELEHLKELEINSFGIRFQIFKEIRNIKSAIDSSSNKLDADYSTFAFENQAAQLMPAATVNRDEIQQQISSKCNKLSSESSDRKSSSVTTELQRPSSVVVNPNFKLHDPAEQILDMTEVPNLFADKDIFESPGRAPKPPSYPSPVQPPQSPSFNNRYTNNNARFPPQTTYPPKNKNPTVYSNGLIPNSSTSSDNSTGKFKFPAMNGHDSNSRKTTLTSATIPSINTVNTDESLPAISNISSNATSHHPNRNSVVYNNHKRTESGSSFVDLFNRISMLSPVKSSFDEEETKQPSKASRAVFDSARRKSSYGHSRDASLSEMKKHRRNSSILSFFSSKSQSNPTSPTKQTFTIDPAKMTSHSRSQSNSYSHARSQSYSHSRKHSLVTSPLKTSLSPINSKSNIALAHSETPTSSNNKEAVSQPSEGKHKHKHKHKSKHKHKNSSSKDGSSEEKSKKKLFSSTKESFVGSKEFKRSPSELTQKSTKSILPRSNAKKQQTSAFTEGIRSITAKESMQTADCSGWMSKKGTGAMGTWKQRFFTLHGTRLSYFTNTNDEKERGLIDITAHRVLPASDDDRLISLYAASLGKGKYCFKLVPPQPGSKKGLTFTEPRVHYFAVENKSEMKAWLSAIIKATIDIDTSVPVISSYATPTIPLSKAQTLLEEARLQTQLRDAEEEEGRDQFGWDDTQNKRNSNYPIEQDQFETSDYLESSAFEYPGGRL
Protein-protein interaction distance between Abp1 SH3-swapped baits, to ABP1 (Abp1 bait with swapped SH3, distance to bait with ABP1 SH3, sheet Fig2C): 11.59 | Protein-protein interaction distance between Abp1 SH3-swapped baits, to BBC1 (distance to Abp1 bait with BBC1 SH3, sheet Fig2C): 9.448 | Protein-protein interaction distance between Abp1 SH3-swapped baits, to BEM1-1 (distance to Abp1 bait with BEM1-1 SH3, sheet Fig2C): 8.19 | Protein-protein interaction distance between Abp1 SH3-swapped baits, to BEM1-2 (distance to Abp1 bait with BEM1-2 SH3, sheet Fig2C): 28.06 | Protein-protein interaction distance between Abp1 SH3-swapped baits, to BOI1 (distance to Abp1 bait with BOI1 SH3, sheet Fig2C): 0.00 | Protein-protein interaction distance between Abp1 SH3-swapped baits, to BOI2 (distance to Abp1 bait with BOI2 SH3, sheet Fig2C): 6.71 | Protein-protein interaction distance between Abp1 SH3-swapped baits, to BUD14 (distance to Abp1 bait with BUD14 SH3, sheet Fig2C): 11.14 | Protein-protein interaction distance between Abp1 SH3-swapped baits, to BZZ1-1 (distance to Abp1 bait with BZZ1-1 SH3, sheet Fig2C): 8.863 | Protein-protein interaction distance between Abp1 SH3-swapped baits, to BZZ1-2 (distance to Abp1 bait with BZZ1-2 SH3, sheet Fig2C): 6.782 | Protein-protein interaction distance between Abp1 SH3-swapped baits, to CDC25 (distance to Abp1 bait with CDC25 SH3, sheet Fig2C): 21 | Protein-protein interaction distance between Abp1 SH3-swapped baits, to CTTN (distance to Abp1 bait with CTTN SH3, sheet Fig2C): 8.701 | Protein-protein interaction distance between Abp1 SH3-swapped baits, to CYK3 (distance to Abp1 bait with CYK3 SH3, sheet Fig2C): 21.68 | Protein-protein interaction distance between Abp1 SH3-swapped baits, to DBNL (distance to Abp1 bait with DBNL SH3, sheet Fig2C): 8.616 | Protein-protein interaction distance between Abp1 SH3-swapped baits, to FUS1 (distance to Abp1 bait with FUS1 SH3, sheet Fig2C): 12.53 | Protein-protein interaction distance between Abp1 SH3-swapped baits, to HCLS1 (distance to Abp1 bait with HCLS1 SH3, sheet Fig2C): 12.36 | Protein-protein interaction distance between Abp1 SH3-swapped baits, to HOF1 (distance to Abp1 bait with HOF1 SH3, sheet Fig2C): 26.74 | Protein-protein interaction distance between Abp1 SH3-swapped baits, to HSE1 (distance to Abp1 bait with HSE1 SH3, sheet Fig2C): 7.847 | Protein-protein interaction distance between Abp1 SH3-swapped baits, to LSB1 (distance to Abp1 bait with LSB1 SH3, sheet Fig2C): 16.11 | Protein-protein interaction distance between Abp1 SH3-swapped baits, to LSB3 (distance to Abp1 bait with LSB3 SH3, sheet Fig2C): 16.12 | Protein-protein interaction distance between Abp1 SH3-swapped baits, to MYO3 (distance to Abp1 bait with MYO3 SH3, sheet Fig2C): 14.63 | Protein-protein interaction distance between Abp1 SH3-swapped baits, to MYO5 (distance to Abp1 bait with MYO5 SH3, sheet Fig2C): 14.33 | Protein-protein interaction distance between Abp1 SH3-swapped baits, to NBP2 (distance to Abp1 bait with NBP2 SH3, sheet Fig2C): 10.48 | Protein-protein interaction distance between Abp1 SH3-swapped baits, to PEX13 (distance to Abp1 bait with PEX13 SH3, sheet Fig2C): 13.22 | Protein-protein interaction distance between Abp1 SH3-swapped baits, to PIN3 (distance to Abp1 bait with PIN3 SH3, sheet Fig2C): 13.58 | Protein-protein interaction distance between Abp1 SH3-swapped baits, to RVS167 (distance to Abp1 bait with RVS167 SH3, sheet Fig2C): 11.58 | Protein-protein interaction distance between Abp1 SH3-swapped baits, to SDC25 (distance to Abp1 bait with SDC25 SH3, sheet Fig2C): 29.16 | Protein-protein interaction distance between Abp1 SH3-swapped baits, to SHO1 (distance to Abp1 bait with SHO1 SH3, sheet Fig2C): 8.152 | Protein-protein interaction distance between Abp1 SH3-swapped baits, to SLA1-1 (distance to Abp1 bait with SLA1-1 SH3, sheet Fig2C): 23.94 | Protein-protein interaction distance between Abp1 SH3-swapped baits, to SLA1-2 (distance to Abp1 bait with SLA1-2 SH3, sheet Fig2C): 13.51 | Protein-protein interaction distance between Abp1 SH3-swapped baits, to SLA1-3 (distance to Abp1 bait with SLA1-3 SH3, sheet Fig2C): 15.75 | Protein-protein interaction distance between Abp1 SH3-swapped baits, to YSC84 (distance to Abp1 bait with YSC84 SH3, sheet Fig2C): 16.61 | PPIs gained by Abp1 - SH3-dependent PPIs gained by Abp1 [1]: 1 | SH3-dependent PPIs - SH3-dependent PPIs gained by Abp1 [1]: 2 | SH3-dependent PPIs gained by Abp1 (number of PPIs, Abp1 SH3-swapped with the listed SH3, DHFR-PCA, Fig2D,S2F): 1

Reference: article PMC7954794, “Protein context shapes the specificity of SH3 domain-mediated interactions in vivo” (Nature Communications, 2021)
